# From the supplement of paper PMC12042874
# ± gives the uncertainty stated by the source.
# Experiment: amyloid nucleation score (Sup35N fusion, yeast selection) (log enrichment); library NNK2; higher = more nucleation; inactive = no reads after selection
# Summary of the method: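 Peptides of 20 random codons, each fused to Sup35N, were expressed in psi-negative yeast. Cells were induced with 100 μM copper sulfate for 24 hours and grown 7 days at 30°C on medium lacking adenine and uracil, and plasmid inserts before and after selection were Illumina-sequenced. Nucleation scores are DiMSum log enrichments of output over input reads, centred on the mode score of non-aggregating sequences, and sequences under 100 input reads were excluded.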
row,Substance,amyloid nucleation score
1,KLMLSALFLKVPAIIGRYRW,0.736 ± 0.8
2,PRHSSSPALILWNYPNLTGI,-0.708 ± 0.37
3,GFKDCV,0.263 ± 0.22
4,IVMGLGLGASVSRGWNN,3.58 ± 0.069
5,TDLTQF,-0.375 ± 1.1
6,FSFKPRTRSAGG,-0.11 ± 0.5
7,DGFRVCDMFGHAWGVENIPF,0.086 ± 0.31
8,TDKKACNLNDANVS,-0.014 ± 0.76
9,SFVIIVLDDLCSCAN,1.62 ± 0.13
10,LTAWIC,0.285 ± 1
11,CSALLYW,1.29 ± 0.61
12,ISVKDCLYPQLL,-0.492 ± 1
13,FLFMAIYSILLASIYVAFLS,2.02 ± 0.2
14,THCKGIYLSCMTSDFVHSYY,inactive
15,LSSTYRC,-0.24 ± 0.39
16,DIMYPYWMVR,-0.667 ± 0.76
17,YVSSNWRNFRSVSQWWMLHV,1.57 ± 0.1
18,WWKAGFSCDTEMSRRPHTLV,-0.168 ± 1.1
19,NMLVVFNAPYYSL,7.811 ± 0.049
20,WSSKGVCYEVLCRFKVLQ,2.99 ± 0.084
21,YFSKMS,-0.817 ± 0.43
22,LFEASPDAVTVSCDALGLGY,0.324 ± 0.3
23,GCKLPYE,-1.39 ± 0.75
24,CKMYVET,0.23 ± 0.38
25,FRLRVRTVRQNCLYHWGSVE,0.024 ± 0.56

row,Substance,amyloid nucleation score
1,FNTNRNEMCSML,-0.476 ± 1.1
2,GYAWPRGTSGVA,0.353 ± 0.4
3,VWIGAAGGDFDSCRG,1.29 ± 0.43
4,GIIRC,0.209 ± 0.5
5,GTLPYDNRTTYAFYLRVCSL,inactive
6,FVCMIILS,4.89 ± 0.064
7,MPYALIR,-0.821 ± 0.35
8,SNRWPGTFLASETNVLLE,-0.224 ± 0.32
9,RDHYCFYRYRKGEFNNTRHP,-0.147 ± 0.39
10,NVSVNAEVN,-0.955 ± 0.54
11,RIVQYIELRFTYQRKYNGAG,3.02 ± 0.057
12,IGLVVFSAL,2.56 ± 0.11
13,VFNWLNRGEESWDVVLVV,inactive
14,EYAYILELFYQCFVMPYTLV,0.392 ± 0.51
15,ILSCWSCRGRINTY,1.9 ± 0.14
16,MLYVAVTS,0.459 ± 0.25
17,CSIMFIG,0.858 ± 0.47
18,YGVEAECLEKNAALLCYNID,inactive
19,RHRSNCMRRSTVSVGNVRES,0.427 ± 0.23
20,DKRPALFVYSVCRVSSIR,-1.26 ± 0.49
21,RGKDEDMLKSECHYVL,-0.883 ± 0.76
22,YLVRMRYGAM,0.763 ± 0.43
23,GVLGLAFDC,0.662 ± 0.81
24,IPSWCFVIYSRNGYGFLHCT,inactive
25,LQRYRFSNACI,inactive

row,Substance,amyloid nucleation score
1,NRVTCYSMDRNIM,-0.776 ± 1.1
2,LGCHLVGLVNRGKNGGRISL,0.315 ± 0.74
3,SEAEVSFWAFPEEYIEHKYM,inactive
4,MFLVSFRCVSYSAWYLTYMQ,-0.338 ± 0.63
5,DVWWTYMYFKMSTVHAMSLF,-0.113 ± 1.1
6,VSDLKVAQNCANKVIKLRYR,5.01 ± 0.072
7,YIVSSDLTGWGARRSCDFMA,0.571 ± 0.47
8,LLQILTNQKVNGTCSQRF,-1.48 ± 0.78
9,GGMYKSMRGWLTGCFVAWVV,0.369 ± 0.34
10,FCSGVLQMLLISLDNLGRVS,-0.017 ± 1
11,LVWLKQGGTISMLMTCHLFA,0.477 ± 0.52
12,REDLLRNKTLL,-0.858 ± 0.44
13,LMGLFREFFRYILFGCINQF,-0.419 ± 0.27
14,HYYSIDEASRYKMDLNLSLL,2.91 ± 0.099
15,CANYSDARITFTYNSYKICV,1.09 ± 0.2
16,FTFLRRLMFTGFRLAIQNPS,inactive
17,KTMWLLWINGLHMSSHFRSK,-0.006 ± 0.22
18,MVYNQCRSDL,-1.04 ± 0.23
19,TYRLDSWITGSRLV,-0.555 ± 0.76
20,IPIYFSHMNRHWIKCYVLVC,-0.913 ± 0.36
21,YMHSICLFIVDNKIDYLRGY,0.541 ± 0.74
22,WYRLAFQLELPLFHRSYRRW,0.288 ± 0.37
23,SSDATCGVDGHFRLLITHCG,5.9 ± 0.075
24,FCIQK,-0.114 ± 0.55
25,GSLTKSLSKTTQLR,inactive

row,Substance,amyloid nucleation score
1,GNRIPVTRGLVKDRSKLVGV,0.007 ± 1.1
2,RLGSSEACPICLDHFGFIMF,-1.26 ± 0.54
3,SNVQGLACETTGMARGMWSE,0.597 ± 0.17
4,HPWSFLKVGVQFVGFWDSPY,0.366 ± 0.19
5,KRTTLWTARSRLCERTLNCS,0.324 ± 0.24
6,NARFSFKTLRYGGVLRKYPL,-0.363 ± 1.1
7,SYLFVSVDLHFIEVFYR,1.44 ± 0.12
8,PADSTMGK,-0.856 ± 0.29
9,VICEIMYNKMCDTSLRSSLS,0.329 ± 0.65
10,LMISCSYICSVVDYHLMGGS,3.55 ± 0.06
11,LSNEAWFGQGMLDGWGGGEG,0.514 ± 0.56
12,DDFRQVKREDWHWSLSAVLF,0.36 ± 0.62
13,LGEYNINLMDGWEGRCRPVR,0.728 ± 0.43
14,GASLLFALSLSYKFHQYLVD,-1.44 ± 0.49
15,KVFLWIMLWAMPHTSSGFKP,-0.305 ± 0.48
16,RGMSAKSTERYVLGIGRAVS,4.18 ± 0.11
17,QVAKAYFEEGRRDDFSYHGK,0.171 ± 0.56
18,GFICMVMDKCYYRGRNFVGV,-0.106 ± 0.44
19,SCHSFRFKPNGFVL,-0.575 ± 0.49
20,YMALCLTAL,0.367 ± 0.47
21,PNPLSMLRLYRNKASVFSIK,0.745 ± 0.41
22,SMHEISVLLVDPVTLQYLG,0.114 ± 0.63
23,AVWVRLTFDYWGRCTILGTV,inactive
24,KHMLASSFVTVPFVAPCFHF,inactive
25,WNHGIWS,1.03 ± 0.37

row,Substance,amyloid nucleation score
1,TYGVVK,-0.047 ± 0.17
2,RVSQDSVAGRRSLFMKFVGG,6.022 ± 0.042
3,FLDPTVFSYLQVTCDIVDLH,-0.113 ± 1.1
4,VGPVNQRWGVTISLAPEVCF,0.553 ± 0.57
5,YGRVITGCLCQCIGDDGCGD,6.595 ± 0.039
6,KFGVGSLLTSLGYATRSCYL,-0.771 ± 0.25
7,VKMFVF,-0.221 ± 0.79
8,KLALVDIGLVPVIAIMCWMS,0.877 ± 0.14
9,NTAFADVDAF,-0.645 ± 0.55
10,IFNCLFDNGKDVYFGILIDF,2.85 ± 0.081
11,FVSRIGIFLS,-1.28 ± 0.78
12,GALKSMLQVFQEGLLHDWSI,-0.936 ± 0.31
13,FVIFVMNHLWFFWIVWEDRE,-1.26 ± 1.1
14,GHAIWSSIVFVGWNLRGDS,0.065 ± 0.46
15,TWKYDRMVGKIVGLALRVVT,0.643 ± 0.43
16,IPTFSSLCLMLRTEGPRVDI,-1.05 ± 1.1
17,DGYIELS,0.302 ± 0.41
18,VGRGMHTSYFVGTHTWLSVC,4.83 ± 0.11
19,LTVMSFTNNLHYLF,-0.552 ± 0.48
20,SRLSLIFDSIYLCS,2.97 ± 0.15
21,DIRSRINMLRYTFF,inactive
22,GLNYPAIWEARLKG,0.703 ± 0.29
23,FLGSVSVLLDKSSSGVNSKR,-0.284 ± 1.1
24,WSGVSGNLT,0.145 ± 0.4
25,TMKLLQRYYLSFFPI,-1.72 ± 0.64

row,Substance,amyloid nucleation score
1,CMSTDTTLVATMMLQTESA,0.441 ± 0.23
2,GEYISEGDCTCRLQRMVVIE,-0.025 ± 0.76
3,VPYGRAGFVTTYAVCCYNCK,-0.47 ± 1.1
4,LVLYGFYVTSDLRWSLSWKM,0.766 ± 0.2
5,EGVKLECVLYVYDHSARRLL,inactive
6,RNVCGCPGCYFNVDAILLWY,-1.2 ± 1.1
7,RATKYFLSFCSLKFKFCHYF,-0.658 ± 0.32
8,EKVGS,-0.097 ± 1.1
9,TDSAFLCHIAWTPFTVH,0.866 ± 0.48
10,CTNMREFKGSLKAHIVLVVV,-0.479 ± 0.32
11,NHSVYVYMLMALTTWGVLSS,-0.403 ± 0.79
12,LMSMVCSESL,-0.555 ± 0.35
13,CMFVIVKVCIVHGHIVSIAS,inactive
14,LSARFHHAKFLNYSDSRVGQ,inactive
15,LELWFGDWNRVMYSCSVDWG,-0.096 ± 0.5
16,DFWTARFGIGCCGVPCDRFF,-0.507 ± 0.79
17,RMNEACTWTLIVYFYRSLL,1.5 ± 0.12
18,LVIMGVCGWSGL,7.975 ± 0.038
19,IDDDIFVMCCIEKHVLVCEF,3.26 ± 0.047
20,RSKVYTWR,3.23 ± 0.071
21,GYDFT,inactive
22,YTLCTMKLREWNRTSTWPSL,-0.003 ± 0.39
23,GQNLDRSVKGWCTASHTGSF,0.554 ± 0.54
24,TALFGISMVCSGRG,-0.583 ± 1.1
25,EYHSSWVISAPVYLQSATAW,5.23 ± 0.085

row,Substance,amyloid nucleation score
1,TYIFSHTAGYNFG,inactive
2,LFLVTVFRCVFFSQGI,-1.9 ± 1.1
3,DAGDVRQVKEAGLMAGS,0.527 ± 0.21
4,HEYLRGRGTFGNIQDYNKLM,-0.447 ± 1.1
5,VTGYGSLYYGVKTRG,-0.295 ± 0.55
6,VNKILQEYMACRRNLQTQMW,-0.215 ± 0.3
7,NRELV,-1.67 ± 0.64
8,IHESSSF,-0.47 ± 1.1
9,HRYLPSG,0.224 ± 0.8
10,YIFFSEKISTMSYSDKLRMA,5.89 ± 0.083
11,PNDLLHLSRLIQDMWMINFN,inactive
12,KMCIAKKSWEGQLVILYMSA,-0.354 ± 0.48
13,AVTIMCPAGLTMANSLVFKQ,5.18 ± 0.07
14,PLSLYNFIFYNAEVPYVVVT,1.84 ± 0.1
15,PFGGSFVSAYSTKRLCHGSH,-1.2 ± 0.48
16,ISVQATGASESETIPIQTGY,2.13 ± 0.11
17,FFMCMQVWLRVFYVRGM,-1.5 ± 0.36
18,ARLRC,0.001 ± 0.28
19,LDYFFAAL,inactive
20,LYRMYPWVLVGCELFRMVCR,0.108 ± 0.38
21,TLKACKNFYGGIFCNHGSES,-0.72 ± 1.1
22,FQDVDVLGSWPG,0.387 ± 0.53
23,YMFRDQVWYMTYKDYGHGIR,-0.249 ± 1.1
